Assay results taken from patent US20150166663A1.
Blank lines part the entries; values can stand above or below the substance they belong to.

Key:
[1] = target: α4β1 integrin on J6.77 cells (UniProt P13612); assay: cell-based or functional assay
[2] = target: cynomolgus β6 on transfected HEK-293 cells (cynomolgus); assay: FACS, transiently transfected HEK-293 cells
[3] = target: cynomolgus αVβ6 on cells (cynomolgus); assay: FACS, transiently transfected HEK-293 cells
[4] = target: cynomolgus αVβ6 on cells (cynomolgus); assay: FACS, K562 cells expressing cynomolgus αVβ6 (parental 46)
[5] = target: mouse αVβ6 on cells (mouse) (UniProt P43406); assay: FACS, K562 cells expressing mouse αVβ6 (parental 46)
[6] = target: human αV on parental A375M cells (αVβ3 and αVβ5) (human) (UniProt P06756); assay: FACS, parental A375M cells, day 2
[7] = target: cynomolgus αVβ6 on cells (cynomolgus); assay: FACS, HEK-293 cells transfected with cynomolgus αV and β6, day 1
[8] = target: α5β1 integrin on K562 cells (UniProt P08648); assay: cell-based or functional assay
[9] = target: human αV on parental A375M cells (αVβ3 and αVβ5) (human) (UniProt P06756); assay: cell-based or functional assay
[10] = target: human αV on parental A375M cells (αVβ3 and αVβ5) (human) (UniProt P06756); assay: FACS, parental A375M cells, day 1
[11] = target: cynomolgus αVβ6 on cells (cynomolgus); assay: FACS, HEK-293 cells transfected with cynomolgus αV and β6, day 2
[12] = target: mouse αVβ6 on cells (mouse) (UniProt P43406); assay: FACS, K562 cells expressing mouse αVβ6 (parental 12)
[13] = target: cynomolgus αVβ6 on cells (cynomolgus); assay: FACS, K562 cells expressing cynomolgus αVβ6 (parental 12)
[14] = target: cynomolgus αVβ6 on cells (cynomolgus); assay: FACS, K562 cells expressing cynomolgus αVβ6 (parental 23)
[15] = target: mouse αVβ6 on cells (mouse) (UniProt P43406); assay: FACS, K562 cells expressing mouse αVβ6 (parental 23)
[16] = target: cynomolgus αVβ6 on cells (cynomolgus); assay: FACS, 1 ug/ml, HEK-293 cells transfected with cynomolgus αV and β6, day 2
[17] = target: human αV on parental A375M cells (αVβ3 and αVβ5) (human) (UniProt P06756); assay: FACS, 1 ug/ml, parental A375M cells, day 1
[18] = target: human αVβ6 integrin on cells (human) (UniProt P06756); assay: FMAT, 1 ug/mL on HEK 293 cells stably overexpressing αVβ6
[19] = target: human αVβ6 integrin on cells (human) (UniProt P06756); assay: cell-based or functional assay
[20] = target: cynomolgus αVβ6 on cells (cynomolgus); assay: FACS, K562 cells expressing cynomolgus αVβ6 (parental 15)
[21] = target: human αV on parental A375M cells (αVβ3 and αVβ5) (human) (UniProt P06756); assay: FACS, 1 ug/ml, parental A375M cells, day 2
soluble αVβ6 (human) = soluble αVβ6 (human) (UniProt P06756); assay: ELISA, 1 ug/mL on coated soluble αVβ6
[22] = target: mouse αVβ6 on cells (mouse) (UniProt P43406); assay: FACS, K562 cells expressing mouse αVβ6 (parental 15)
[23] = target: cynomolgus αVβ6 on cells (cynomolgus); assay: FACS, 1 ug/ml, HEK-293 cells transfected with cynomolgus αV and β6, day 1

Chain of mouse αVβ6 on cells (mouse) (P43406 31-1044, chain 1 of 2): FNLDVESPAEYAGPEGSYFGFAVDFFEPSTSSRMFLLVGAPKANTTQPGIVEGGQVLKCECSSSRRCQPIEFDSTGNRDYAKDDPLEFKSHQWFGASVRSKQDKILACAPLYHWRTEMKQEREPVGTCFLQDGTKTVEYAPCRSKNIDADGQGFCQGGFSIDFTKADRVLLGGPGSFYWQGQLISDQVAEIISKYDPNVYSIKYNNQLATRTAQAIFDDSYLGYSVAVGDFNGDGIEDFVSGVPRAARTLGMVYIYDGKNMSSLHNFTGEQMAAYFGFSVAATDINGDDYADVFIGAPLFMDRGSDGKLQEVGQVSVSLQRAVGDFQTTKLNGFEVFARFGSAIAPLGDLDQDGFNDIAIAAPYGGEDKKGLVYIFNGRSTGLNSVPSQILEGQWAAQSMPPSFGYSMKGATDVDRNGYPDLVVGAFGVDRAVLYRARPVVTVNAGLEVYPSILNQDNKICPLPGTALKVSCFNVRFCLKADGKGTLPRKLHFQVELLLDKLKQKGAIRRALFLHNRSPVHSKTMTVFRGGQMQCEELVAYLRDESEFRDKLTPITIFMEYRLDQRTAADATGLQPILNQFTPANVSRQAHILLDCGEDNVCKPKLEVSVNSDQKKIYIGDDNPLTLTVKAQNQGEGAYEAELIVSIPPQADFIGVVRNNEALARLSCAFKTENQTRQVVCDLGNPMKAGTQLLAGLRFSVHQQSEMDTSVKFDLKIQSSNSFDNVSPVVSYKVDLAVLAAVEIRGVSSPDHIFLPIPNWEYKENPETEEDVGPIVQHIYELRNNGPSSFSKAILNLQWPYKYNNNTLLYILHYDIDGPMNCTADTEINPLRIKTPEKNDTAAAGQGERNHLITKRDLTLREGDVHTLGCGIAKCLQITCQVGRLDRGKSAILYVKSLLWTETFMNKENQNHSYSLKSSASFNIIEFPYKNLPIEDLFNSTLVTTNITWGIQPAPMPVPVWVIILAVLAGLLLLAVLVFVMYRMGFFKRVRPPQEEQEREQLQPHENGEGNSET
Chain of mouse αVβ6 on cells (mouse) (Q9Z0T9 22-787, chain 2 of 2, further chain): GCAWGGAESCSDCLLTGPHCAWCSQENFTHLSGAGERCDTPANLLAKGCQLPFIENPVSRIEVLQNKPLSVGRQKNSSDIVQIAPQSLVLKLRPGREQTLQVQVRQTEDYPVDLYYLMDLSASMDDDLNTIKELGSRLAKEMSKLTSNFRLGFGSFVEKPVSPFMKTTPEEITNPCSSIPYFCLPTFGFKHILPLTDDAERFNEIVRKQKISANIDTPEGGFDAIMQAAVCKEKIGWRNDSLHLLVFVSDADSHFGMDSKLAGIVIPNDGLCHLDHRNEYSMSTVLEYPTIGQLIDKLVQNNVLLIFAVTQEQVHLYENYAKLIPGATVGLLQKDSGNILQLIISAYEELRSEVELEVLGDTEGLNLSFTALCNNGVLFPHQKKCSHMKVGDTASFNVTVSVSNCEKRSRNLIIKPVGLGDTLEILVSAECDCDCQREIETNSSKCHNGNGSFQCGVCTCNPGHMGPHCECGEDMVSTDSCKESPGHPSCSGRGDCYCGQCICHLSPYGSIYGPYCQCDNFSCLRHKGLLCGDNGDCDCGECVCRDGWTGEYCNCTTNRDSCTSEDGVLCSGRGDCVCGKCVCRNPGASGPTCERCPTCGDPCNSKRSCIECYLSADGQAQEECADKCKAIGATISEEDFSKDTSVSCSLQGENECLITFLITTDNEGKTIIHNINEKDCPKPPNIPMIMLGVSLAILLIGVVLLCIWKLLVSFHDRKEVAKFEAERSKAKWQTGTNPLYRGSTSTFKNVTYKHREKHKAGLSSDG
Chain of human αVβ6 integrin on cells (human) (P06756 31-1048, chain 1 of 2): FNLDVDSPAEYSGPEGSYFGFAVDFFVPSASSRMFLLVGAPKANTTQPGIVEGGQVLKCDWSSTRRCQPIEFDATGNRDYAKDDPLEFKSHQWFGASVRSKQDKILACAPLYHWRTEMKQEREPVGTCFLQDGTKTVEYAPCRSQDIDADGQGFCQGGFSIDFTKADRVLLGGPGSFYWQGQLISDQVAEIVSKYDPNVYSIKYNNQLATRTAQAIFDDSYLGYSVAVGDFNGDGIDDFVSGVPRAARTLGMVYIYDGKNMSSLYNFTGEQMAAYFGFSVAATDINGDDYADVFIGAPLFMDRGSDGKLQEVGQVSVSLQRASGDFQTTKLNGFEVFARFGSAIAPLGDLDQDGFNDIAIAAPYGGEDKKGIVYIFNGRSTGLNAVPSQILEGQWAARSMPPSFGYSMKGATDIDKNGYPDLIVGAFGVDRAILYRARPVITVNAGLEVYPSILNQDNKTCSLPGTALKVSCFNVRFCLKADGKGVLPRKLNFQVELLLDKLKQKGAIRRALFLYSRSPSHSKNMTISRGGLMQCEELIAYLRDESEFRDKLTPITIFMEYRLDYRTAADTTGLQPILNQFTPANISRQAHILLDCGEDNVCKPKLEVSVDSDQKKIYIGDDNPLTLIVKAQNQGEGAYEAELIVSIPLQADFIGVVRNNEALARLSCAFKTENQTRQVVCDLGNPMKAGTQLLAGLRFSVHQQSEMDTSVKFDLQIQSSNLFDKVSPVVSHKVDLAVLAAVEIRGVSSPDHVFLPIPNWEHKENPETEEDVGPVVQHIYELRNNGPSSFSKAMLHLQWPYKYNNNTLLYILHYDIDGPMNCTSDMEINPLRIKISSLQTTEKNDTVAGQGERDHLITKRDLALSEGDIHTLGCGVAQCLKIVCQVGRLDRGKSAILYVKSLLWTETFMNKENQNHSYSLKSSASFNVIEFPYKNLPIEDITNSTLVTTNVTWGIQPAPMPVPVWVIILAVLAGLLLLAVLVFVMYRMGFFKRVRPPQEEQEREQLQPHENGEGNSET
Chain of human αVβ6 integrin on cells (human) (P18564 22-788, chain 2 of 2, further chain): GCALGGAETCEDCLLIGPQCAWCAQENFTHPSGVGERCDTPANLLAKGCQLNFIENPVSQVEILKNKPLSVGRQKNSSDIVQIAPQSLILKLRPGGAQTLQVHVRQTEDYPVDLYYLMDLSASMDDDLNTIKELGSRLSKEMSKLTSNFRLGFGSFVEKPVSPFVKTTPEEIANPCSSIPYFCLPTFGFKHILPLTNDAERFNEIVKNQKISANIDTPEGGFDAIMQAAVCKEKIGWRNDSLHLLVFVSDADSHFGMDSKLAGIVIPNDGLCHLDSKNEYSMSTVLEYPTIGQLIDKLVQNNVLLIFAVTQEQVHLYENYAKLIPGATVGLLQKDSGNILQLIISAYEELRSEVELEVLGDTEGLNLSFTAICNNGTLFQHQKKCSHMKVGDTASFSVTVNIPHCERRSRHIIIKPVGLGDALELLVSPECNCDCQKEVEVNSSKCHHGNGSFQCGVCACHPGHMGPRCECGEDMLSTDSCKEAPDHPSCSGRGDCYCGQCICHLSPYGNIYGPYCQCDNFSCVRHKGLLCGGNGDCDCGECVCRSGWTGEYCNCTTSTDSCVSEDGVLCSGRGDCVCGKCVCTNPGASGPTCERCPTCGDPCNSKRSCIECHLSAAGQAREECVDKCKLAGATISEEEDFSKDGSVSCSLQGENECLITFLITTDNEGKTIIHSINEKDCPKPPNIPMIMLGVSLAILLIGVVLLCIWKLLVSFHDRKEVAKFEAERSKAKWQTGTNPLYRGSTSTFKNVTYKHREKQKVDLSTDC

Percent Inhibition, adhesion of J6.77 cells to CS-1 peptide of fibronectin, 5 ug/ml [1]: 26%
Percent Inhibition, adhesion of J6.77 cells to CS-1 peptide of fibronectin, 5 µg/ml [1]: -6%
percent of cells shifted [2]: 1%
percent of cells shifted [3]: 0%
Geometric Mean Shift (arbitrary units) [4]: 54
Geometric Mean Shift (arbitrary units) [5]: 108
Substance: Human IgG1 (antibody)

Percent Inhibition, adhesion of J6.77 cells to CS-1 peptide of fibronectin, 5 ug/ml [1]: 13%
Percent Inhibition, adhesion of J6.77 cells to CS-1 peptide of fibronectin, 5 µg/ml [1]: -9%
Substance: Human IgG2 (antibody)

Percent Inhibition, adhesion of J6.77 cells to CS-1 peptide of fibronectin, 5 ug/ml [1]: 15%
Substance: Human IgG4 (antibody)

A375M % Shifted Cells [6]: 1%
A375M GeoMean [6]: 7.23
Mac AVB6 % Cells Shifted [7]: 1%
Mac AVB6 GeoMean [7]: 9.54
% Inhibition, adhesion of K562 cells to fibronectin [8]: -12%
Percent Inhibition, adhesion of K562 cells to FN9-10 peptide of fibronectin, 5 µg/ml [8]: 11%
Percent Inhibition, adhesion of A375M cells to osteopontin peptide, 5 µg/ml [9]: 3%
A375M % Shifted Cells [10]: 5%
A375M GeoMean [10]: 1.66
Mac AVB6 % Cells Shifted [11]: 0%
Mac AVB6 GeoMean [11]: 7.39
Substance: Human IgG Isotype Control (antibody)

Geometric Mean Shift (arbitrary units) [12]: 20
Geometric Mean Shift (arbitrary units) [13]: 13
Substance: Mouse IgG1 (antibody)

A375M % Shifted Cells [6]: 3%
A375M GeoMean [6]: 11.2
Mac AVB6 % Cells Shifted [7]: 1%
Mac AVB6 GeoMean [7]: 8.85
A375M % Shifted Cells [10]: 4%
A375M GeoMean [10]: 1.67
Mac AVB6 % Cells Shifted [11]: 0%
Mac AVB6 GeoMean [11]: 11.2
Substance: Mouse IgG2 with Murine Secondary Antibody

Geometric Mean Shift (arbitrary units) [14]: 25
Geometric Mean Shift (arbitrary units) [15]: 36
Substance: Mouse IgG2a (antibody)

Percent Inhibition, adhesion of A375M cells to osteopontin peptide, 5 µg/ml [9]: 5%
Substance: Mouse IgG Control (antibody)

Mac AVB6 % Cells Shifted [16]: 11%
Mac AVB6 GeoMean [16]: 28.1
A375M % Shifted Cells [17]: 30%
A375M GeoMean [17]: 2.03
FMAT FL1XCount [18]: 44200
Estimated IC50, adhesion of HT29 cells to TGFβLAP, n = 1 [19]: 0.226 µg/mL
Estimated IC50, adhesion of HT29 cells to TGFβLAP, n = 2 [19]: 0.185 µg/mL
Estimated IC50, adhesion of HT29 cells to TGFβLAP, n = 3 [19]: 0.286 µg/mL
Geometric Mean Shift (arbitrary units) [20]: 84
A375M % Shifted Cells [21]: 5%
A375M GeoMean [21]: 15.4
percent of cells shifted [2]: 5%
percent of cells shifted [3]: 20%
ELISA OD (soluble αVβ6 (human)): 6 OD
Geometric Mean Shift (arbitrary units) [22]: 122
Mac AVB6 % Cells Shifted [23]: 42%
Mac AVB6 GeoMean [23]: 55.5
Substance: murine αVβ6 antibody (Cat#MAB2077z, Chemicon)
